# In US7186697:
# Molecular target: recombinant HIV-1 gp120 (American Biotechnology, Inc.) (HIV-1)
# Assay: ELISA on gp120-coated plates, culture medium
substance,measurement,value
Fab105-Protamine fusion protein (from UniProt P04553 1-51),binding activity against HIV gp120 in culture medium (µg/ml/24 hours),0.1
